Key:
[1] = target: T1, CsgG Y51A/F56V/N91R/K94Q/R97W-del(V105-I107) pore (E. coli, UniProt P0AEA2 16-277); experiment: pore 6; in vitro reconstitution; DNA translocation, signal:noise
T1 chain: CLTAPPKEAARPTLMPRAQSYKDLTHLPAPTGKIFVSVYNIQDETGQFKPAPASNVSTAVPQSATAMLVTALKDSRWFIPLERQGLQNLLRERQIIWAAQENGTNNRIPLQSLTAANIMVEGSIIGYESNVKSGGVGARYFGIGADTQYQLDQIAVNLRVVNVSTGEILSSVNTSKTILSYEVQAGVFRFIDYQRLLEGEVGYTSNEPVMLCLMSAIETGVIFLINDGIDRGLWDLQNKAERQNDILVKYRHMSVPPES

[2] = target: T2, CsgG Y51A/F56A/N91R/K94Q/R97W-del(V105-I107) pore containing the C terminal strep tag (E. coli, UniProt P0AEA2 16-277); experiment: pore 4; in vitro reconstitution; DNA translocation, signal:noise
T2 construct: not shown: C-terminal Strep tag
T2 chain: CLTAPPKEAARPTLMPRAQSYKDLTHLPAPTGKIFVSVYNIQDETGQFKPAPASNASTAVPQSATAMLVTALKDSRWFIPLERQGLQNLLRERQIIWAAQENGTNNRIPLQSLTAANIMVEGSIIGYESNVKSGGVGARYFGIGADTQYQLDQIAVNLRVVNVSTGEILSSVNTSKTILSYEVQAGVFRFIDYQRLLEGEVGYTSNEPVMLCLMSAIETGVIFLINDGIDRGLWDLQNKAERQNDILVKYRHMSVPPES

[3] = target: T3, CsgG Y51A/F56Q/N91R/K94Q/R97W-del(V105-I107) pore containing the C terminal strep tag (E. coli, UniProt P0AEA2 16-277); experiment: pore 1; in vitro reconstitution; DNA translocation, signal:noise
T3 construct: Oligomeric CsgG pore; not shown: C-terminal Strep tag
T3 chain: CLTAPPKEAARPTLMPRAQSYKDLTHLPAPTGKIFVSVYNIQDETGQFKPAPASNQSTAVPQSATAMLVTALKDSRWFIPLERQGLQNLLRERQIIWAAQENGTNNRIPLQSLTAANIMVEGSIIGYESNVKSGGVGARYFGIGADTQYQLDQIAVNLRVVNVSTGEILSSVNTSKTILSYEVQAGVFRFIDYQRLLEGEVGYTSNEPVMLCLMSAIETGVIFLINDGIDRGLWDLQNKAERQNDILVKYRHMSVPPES

[4] = target: T4, CsgG Y51S/N55A/F56Q/N91R/K94Q/R97W-del(V105-I107) pore (E. coli, UniProt P0AEA2 16-277); experiment: pore 7; in vitro reconstitution; DNA translocation, signal:noise
T4 chain: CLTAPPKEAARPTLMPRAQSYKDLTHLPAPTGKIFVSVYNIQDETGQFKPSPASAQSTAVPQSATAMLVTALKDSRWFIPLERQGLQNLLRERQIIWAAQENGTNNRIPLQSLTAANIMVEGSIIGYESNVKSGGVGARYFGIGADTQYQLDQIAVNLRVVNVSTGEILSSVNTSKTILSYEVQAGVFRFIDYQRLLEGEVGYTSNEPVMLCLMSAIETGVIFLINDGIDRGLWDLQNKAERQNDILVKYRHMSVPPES

[5] = target: T5, CsgG Y51A/N55I/F56Q/N91R/K94Q/R97W-del(V105-I107) pore containing the C terminal strep tag (E. coli, UniProt P0AEA2 16-277); experiment: pore 2; in vitro reconstitution; DNA translocation, signal:noise
T5 construct: also called Y51A/N551/F56Q/N91R/K94Q/R97W-del(V105-I107) (sic); not shown: C-terminal Strep tag
T5 chain: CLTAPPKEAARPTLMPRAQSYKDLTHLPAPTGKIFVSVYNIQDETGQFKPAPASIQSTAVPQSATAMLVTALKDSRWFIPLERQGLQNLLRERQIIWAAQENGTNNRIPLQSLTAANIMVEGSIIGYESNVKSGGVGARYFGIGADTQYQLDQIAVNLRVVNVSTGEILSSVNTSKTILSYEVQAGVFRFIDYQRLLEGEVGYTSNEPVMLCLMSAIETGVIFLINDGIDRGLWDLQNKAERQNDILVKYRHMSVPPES

[6] = target: T6, CsgG Y51T/N55V/F56Q/N91R/K94Q/R97W-del(V105-I107) pore containing the C terminal strep tag (E. coli, UniProt P0AEA2 16-277); experiment: pore 9; in vitro reconstitution; DNA translocation, signal:noise
T6 construct: not shown: C-terminal Strep tag
T6 chain: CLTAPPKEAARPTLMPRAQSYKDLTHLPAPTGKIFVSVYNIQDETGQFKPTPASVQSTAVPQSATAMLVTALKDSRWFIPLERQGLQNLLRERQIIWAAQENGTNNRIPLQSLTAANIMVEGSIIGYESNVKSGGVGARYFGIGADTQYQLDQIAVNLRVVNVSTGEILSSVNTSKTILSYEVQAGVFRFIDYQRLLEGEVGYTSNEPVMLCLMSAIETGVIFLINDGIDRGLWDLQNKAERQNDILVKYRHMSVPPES

[7] = target: T7, CsgG Y51S/N55V/F56Q/N91R/K94Q/R97W-del(V105-I107) pore containing the C terminal strep tag (E. coli, UniProt P0AEA2 16-277); experiment: pore 8; in vitro reconstitution; DNA translocation, signal:noise
T7 construct: also called Y515/N55V/F56Q/N91R/K94Q/R97W-del(V105-I107) (sic); not shown: C-terminal Strep tag
T7 chain: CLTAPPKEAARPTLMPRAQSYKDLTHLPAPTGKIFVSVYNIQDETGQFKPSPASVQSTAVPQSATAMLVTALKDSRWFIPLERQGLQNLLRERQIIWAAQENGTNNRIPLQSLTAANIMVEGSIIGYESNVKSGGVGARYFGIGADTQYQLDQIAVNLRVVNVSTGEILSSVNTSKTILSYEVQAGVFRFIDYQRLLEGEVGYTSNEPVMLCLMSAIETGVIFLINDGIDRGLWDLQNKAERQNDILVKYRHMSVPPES

[8] = target: T8, CsgG Y51A/F56Q/N91R/K94Q/R97W/R192D-del(V105-I107) pore (E. coli, UniProt P0AEA2 16-277); experiment: last panel; reader head discrimination from DNA translocation
T8 chain: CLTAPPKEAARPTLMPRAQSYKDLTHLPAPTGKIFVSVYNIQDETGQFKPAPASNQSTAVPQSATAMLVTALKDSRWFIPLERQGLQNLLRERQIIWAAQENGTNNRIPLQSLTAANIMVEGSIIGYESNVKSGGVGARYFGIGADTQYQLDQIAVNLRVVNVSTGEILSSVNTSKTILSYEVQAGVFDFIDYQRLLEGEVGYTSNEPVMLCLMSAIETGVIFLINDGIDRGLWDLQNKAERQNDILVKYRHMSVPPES

Measured: binding result

GTMTFQFRNPNFGGNPNNGAFLLNSAQAQNSYKDP (also called CsgF (1-35) peptide) [CsgF-(1-35) synthetic peptide]
not listed: [8]
binds: all other assays above

GTMTFQFRNPNFGGNPSNGAFLLNSAQAQNSYKDPSYNDDFGIET [CsgF-N17S-(1-45) peptide]
binds: [8]
